According to patent publication US12448462 (dated 2025):

B1: anti-Muc1 T4E3 Fab (Fab, V domains shown)
VH: QVQLVQSGGGLVQPGGSLRLSCAASGFTFDDYAMHWVRQAPGKGLEWVSGISWNSGSIGYADSVKGRFTISRDNAKNSLYLQMNSLRAEDTALYYCAKDIGSGSYYNYYYGMDVWGQGTTATISS
VL: SSELTQDPAVSVALGQTVRITCQGDSLRSYYASWYQQKPGQAPVLVIYGKNSRPSGIPDRFSGSNSGSTASLTITGAQAEDEADYYCNSRDRYGNSLVIFGGGTKLTVL
B2: T4E3 scFv (scFv, V domains shown)
VH: B1 VH
VL: B1 VL

Target: T1, MUC1 (human, UniProt P15941 1039-1148)
T1 chain: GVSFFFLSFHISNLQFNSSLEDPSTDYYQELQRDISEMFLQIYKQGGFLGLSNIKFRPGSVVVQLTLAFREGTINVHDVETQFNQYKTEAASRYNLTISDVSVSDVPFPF
Assay: flow

Binder	EC50 [nM]
B1	16
B2	7.48
